The labels stand for the following.
B1: GpH7-B3 variant S337_04F/GpL16-k0 (antibody, human IgG1, kappa)
heavy: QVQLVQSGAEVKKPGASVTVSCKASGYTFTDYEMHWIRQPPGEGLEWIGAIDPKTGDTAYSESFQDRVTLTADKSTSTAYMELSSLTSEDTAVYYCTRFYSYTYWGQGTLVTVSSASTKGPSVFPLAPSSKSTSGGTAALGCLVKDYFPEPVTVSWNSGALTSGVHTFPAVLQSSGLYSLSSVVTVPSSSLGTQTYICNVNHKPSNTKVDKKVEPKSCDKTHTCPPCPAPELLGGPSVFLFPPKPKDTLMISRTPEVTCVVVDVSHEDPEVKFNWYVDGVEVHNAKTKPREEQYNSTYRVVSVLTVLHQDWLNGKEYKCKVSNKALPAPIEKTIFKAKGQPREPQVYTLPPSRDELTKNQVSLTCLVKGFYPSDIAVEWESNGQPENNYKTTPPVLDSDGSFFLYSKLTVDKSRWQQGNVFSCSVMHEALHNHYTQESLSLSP
light: DIVMTQSPLSLPVTPGEPASISCQASESLVHSNRNTYLHWYLQKPGQSPQLLIYKVSNRFSGVPDRFSGSGSGTDFTLKISRVEAEDVGVYYCSQNTHVPPTFGQGTKVEIERTVAAPSVFIFPPSDEQLKSGTASVVCLLNNFYPREAKVQWKVDNALQSGNSQESVTEQDSKDSTYSLSSTLTLSKADYEKHKVYACEVTHQGLSSPVTKSFNRGEC
notes: mutation in both H chains; also called Ho Ab S337_04F; S337F
B2: GpH7-B3 variant S337_07I/GpL16-k0 (antibody, human IgG1, kappa)
heavy: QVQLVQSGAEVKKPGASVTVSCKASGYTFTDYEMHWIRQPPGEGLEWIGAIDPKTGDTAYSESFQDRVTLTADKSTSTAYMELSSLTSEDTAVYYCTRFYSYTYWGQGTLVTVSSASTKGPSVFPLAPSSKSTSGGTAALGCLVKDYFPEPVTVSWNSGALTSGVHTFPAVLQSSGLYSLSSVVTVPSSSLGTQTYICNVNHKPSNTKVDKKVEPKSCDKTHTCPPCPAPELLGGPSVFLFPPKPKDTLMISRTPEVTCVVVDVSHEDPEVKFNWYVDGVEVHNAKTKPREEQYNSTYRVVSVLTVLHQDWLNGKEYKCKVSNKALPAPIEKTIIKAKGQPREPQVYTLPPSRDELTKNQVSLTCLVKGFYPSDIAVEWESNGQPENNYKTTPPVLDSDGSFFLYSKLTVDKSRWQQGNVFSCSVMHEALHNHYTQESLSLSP
light: DIVMTQSPLSLPVTPGEPASISCQASESLVHSNRNTYLHWYLQKPGQSPQLLIYKVSNRFSGVPDRFSGSGSGTDFTLKISRVEAEDVGVYYCSQNTHVPPTFGQGTKVEIERTVAAPSVFIFPPSDEQLKSGTASVVCLLNNFYPREAKVQWKVDNALQSGNSQESVTEQDSKDSTYSLSSTLTLSKADYEKHKVYACEVTHQGLSSPVTKSFNRGEC
notes: mutation in both H chains; also called Ho Ab S337_07I; S337I
B3: GpH7-B3 variant T335_06M/GpL16-k0 (antibody, human IgG1, kappa)
heavy: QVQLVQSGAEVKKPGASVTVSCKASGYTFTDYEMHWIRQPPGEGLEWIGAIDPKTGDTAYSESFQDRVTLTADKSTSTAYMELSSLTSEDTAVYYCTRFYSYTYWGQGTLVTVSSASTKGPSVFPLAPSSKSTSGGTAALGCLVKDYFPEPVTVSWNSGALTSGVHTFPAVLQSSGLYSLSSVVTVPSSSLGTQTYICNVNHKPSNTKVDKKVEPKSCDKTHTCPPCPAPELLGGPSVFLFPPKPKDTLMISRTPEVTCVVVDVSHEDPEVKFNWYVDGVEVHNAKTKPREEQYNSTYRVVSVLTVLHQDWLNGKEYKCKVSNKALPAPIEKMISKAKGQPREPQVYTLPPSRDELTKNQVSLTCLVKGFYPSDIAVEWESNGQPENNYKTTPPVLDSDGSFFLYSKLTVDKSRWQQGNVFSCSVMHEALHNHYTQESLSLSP
light: DIVMTQSPLSLPVTPGEPASISCQASESLVHSNRNTYLHWYLQKPGQSPQLLIYKVSNRFSGVPDRFSGSGSGTDFTLKISRVEAEDVGVYYCSQNTHVPPTFGQGTKVEIERTVAAPSVFIFPPSDEQLKSGTASVVCLLNNFYPREAKVQWKVDNALQSGNSQESVTEQDSKDSTYSLSSTLTLSKADYEKHKVYACEVTHQGLSSPVTKSFNRGEC
notes: mutation in both H chains; also called Ho Ab T335_06M; T335M
B4: GpH7-B3 variant T335_12R/GpL16-k0 (antibody, human IgG1, kappa)
heavy: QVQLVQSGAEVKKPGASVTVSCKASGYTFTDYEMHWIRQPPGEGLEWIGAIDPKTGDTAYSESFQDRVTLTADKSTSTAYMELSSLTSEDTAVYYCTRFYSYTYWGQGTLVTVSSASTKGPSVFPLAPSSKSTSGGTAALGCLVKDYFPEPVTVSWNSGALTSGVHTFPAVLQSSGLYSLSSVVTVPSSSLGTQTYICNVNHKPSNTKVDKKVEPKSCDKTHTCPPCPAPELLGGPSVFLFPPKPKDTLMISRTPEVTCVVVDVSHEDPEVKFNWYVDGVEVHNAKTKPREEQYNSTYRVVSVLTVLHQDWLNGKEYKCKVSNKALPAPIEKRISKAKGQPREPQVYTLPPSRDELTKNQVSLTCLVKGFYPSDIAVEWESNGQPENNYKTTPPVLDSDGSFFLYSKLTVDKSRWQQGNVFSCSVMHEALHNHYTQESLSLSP
light: DIVMTQSPLSLPVTPGEPASISCQASESLVHSNRNTYLHWYLQKPGQSPQLLIYKVSNRFSGVPDRFSGSGSGTDFTLKISRVEAEDVGVYYCSQNTHVPPTFGQGTKVEIERTVAAPSVFIFPPSDEQLKSGTASVVCLLNNFYPREAKVQWKVDNALQSGNSQESVTEQDSKDSTYSLSSTLTLSKADYEKHKVYACEVTHQGLSSPVTKSFNRGEC
notes: mutation in both H chains; also called Ho Ab T335_12R; T335R
B5: GpH7-B3 variant S337_15Y/GpL16-k0 (antibody, human IgG1, kappa)
heavy: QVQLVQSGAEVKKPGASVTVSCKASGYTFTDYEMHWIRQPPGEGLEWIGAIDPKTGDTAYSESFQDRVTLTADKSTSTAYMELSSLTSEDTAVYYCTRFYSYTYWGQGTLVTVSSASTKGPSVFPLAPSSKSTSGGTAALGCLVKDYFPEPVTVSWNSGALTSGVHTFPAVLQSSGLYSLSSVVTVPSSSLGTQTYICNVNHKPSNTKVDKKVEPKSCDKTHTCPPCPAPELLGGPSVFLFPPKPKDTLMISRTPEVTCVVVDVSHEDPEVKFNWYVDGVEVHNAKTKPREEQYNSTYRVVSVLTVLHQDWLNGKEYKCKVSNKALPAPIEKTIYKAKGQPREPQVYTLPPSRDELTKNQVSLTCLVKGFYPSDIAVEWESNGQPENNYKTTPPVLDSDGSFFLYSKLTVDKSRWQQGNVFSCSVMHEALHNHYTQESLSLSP
light: DIVMTQSPLSLPVTPGEPASISCQASESLVHSNRNTYLHWYLQKPGQSPQLLIYKVSNRFSGVPDRFSGSGSGTDFTLKISRVEAEDVGVYYCSQNTHVPPTFGQGTKVEIERTVAAPSVFIFPPSDEQLKSGTASVVCLLNNFYPREAKVQWKVDNALQSGNSQESVTEQDSKDSTYSLSSTLTLSKADYEKHKVYACEVTHQGLSSPVTKSFNRGEC
notes: mutation in both H chains; also called Ho Ab S337_15Y; S337Y
B6: GpH7-B3 variant S337_09D/GpL16-k0 (antibody, human IgG1, kappa)
heavy: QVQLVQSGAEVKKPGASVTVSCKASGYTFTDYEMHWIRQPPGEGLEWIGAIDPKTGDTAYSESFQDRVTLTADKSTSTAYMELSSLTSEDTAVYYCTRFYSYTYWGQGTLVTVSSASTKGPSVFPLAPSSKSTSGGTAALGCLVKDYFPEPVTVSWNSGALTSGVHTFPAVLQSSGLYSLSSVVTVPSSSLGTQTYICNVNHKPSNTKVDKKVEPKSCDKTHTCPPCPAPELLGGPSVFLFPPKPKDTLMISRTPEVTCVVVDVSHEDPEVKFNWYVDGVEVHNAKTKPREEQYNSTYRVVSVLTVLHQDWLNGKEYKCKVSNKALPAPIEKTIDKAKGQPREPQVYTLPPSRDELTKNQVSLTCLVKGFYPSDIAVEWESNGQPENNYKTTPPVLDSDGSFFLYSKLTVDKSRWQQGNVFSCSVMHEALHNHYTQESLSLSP
light: DIVMTQSPLSLPVTPGEPASISCQASESLVHSNRNTYLHWYLQKPGQSPQLLIYKVSNRFSGVPDRFSGSGSGTDFTLKISRVEAEDVGVYYCSQNTHVPPTFGQGTKVEIERTVAAPSVFIFPPSDEQLKSGTASVVCLLNNFYPREAKVQWKVDNALQSGNSQESVTEQDSKDSTYSLSSTLTLSKADYEKHKVYACEVTHQGLSSPVTKSFNRGEC
notes: mutation in both H chains; also called Ho Ab S337_09D; S337D
B7: GpH7-B3 variant S337_12R/GpL16-k0 (antibody, human IgG1, kappa)
heavy: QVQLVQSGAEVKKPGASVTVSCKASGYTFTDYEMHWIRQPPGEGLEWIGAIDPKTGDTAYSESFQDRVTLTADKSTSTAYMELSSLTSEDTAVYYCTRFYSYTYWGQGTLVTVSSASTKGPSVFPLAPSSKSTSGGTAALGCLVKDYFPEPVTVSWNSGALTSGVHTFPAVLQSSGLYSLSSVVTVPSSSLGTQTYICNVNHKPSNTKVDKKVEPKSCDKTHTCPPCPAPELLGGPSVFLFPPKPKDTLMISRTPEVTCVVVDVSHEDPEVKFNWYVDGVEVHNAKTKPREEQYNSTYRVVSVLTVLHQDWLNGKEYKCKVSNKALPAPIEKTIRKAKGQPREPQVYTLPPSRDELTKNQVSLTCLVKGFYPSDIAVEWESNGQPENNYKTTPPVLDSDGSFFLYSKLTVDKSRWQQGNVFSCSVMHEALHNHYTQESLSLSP
light: DIVMTQSPLSLPVTPGEPASISCQASESLVHSNRNTYLHWYLQKPGQSPQLLIYKVSNRFSGVPDRFSGSGSGTDFTLKISRVEAEDVGVYYCSQNTHVPPTFGQGTKVEIERTVAAPSVFIFPPSDEQLKSGTASVVCLLNNFYPREAKVQWKVDNALQSGNSQESVTEQDSKDSTYSLSSTLTLSKADYEKHKVYACEVTHQGLSSPVTKSFNRGEC
notes: mutation in both H chains; also called Ho Ab S337_12R; S337R
B8: GpH7-B3 variant T335_08L/GpL16-k0 (antibody, human IgG1, kappa)
heavy: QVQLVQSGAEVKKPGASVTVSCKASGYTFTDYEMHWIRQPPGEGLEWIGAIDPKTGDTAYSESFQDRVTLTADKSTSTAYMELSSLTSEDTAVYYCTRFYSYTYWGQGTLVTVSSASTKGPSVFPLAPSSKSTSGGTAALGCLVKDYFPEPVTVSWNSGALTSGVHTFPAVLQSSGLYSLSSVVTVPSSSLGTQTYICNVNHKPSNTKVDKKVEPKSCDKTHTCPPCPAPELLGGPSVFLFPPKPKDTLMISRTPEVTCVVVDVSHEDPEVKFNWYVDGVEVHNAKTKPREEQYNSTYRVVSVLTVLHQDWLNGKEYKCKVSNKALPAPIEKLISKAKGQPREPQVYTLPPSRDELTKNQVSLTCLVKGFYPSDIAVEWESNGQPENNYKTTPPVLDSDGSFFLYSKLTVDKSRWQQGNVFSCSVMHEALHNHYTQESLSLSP
light: DIVMTQSPLSLPVTPGEPASISCQASESLVHSNRNTYLHWYLQKPGQSPQLLIYKVSNRFSGVPDRFSGSGSGTDFTLKISRVEAEDVGVYYCSQNTHVPPTFGQGTKVEIERTVAAPSVFIFPPSDEQLKSGTASVVCLLNNFYPREAKVQWKVDNALQSGNSQESVTEQDSKDSTYSLSSTLTLSKADYEKHKVYACEVTHQGLSSPVTKSFNRGEC
notes: mutation in both H chains; also called Ho Ab T335_08L; T335L
B9: GpH7-B3 variant T335_10E/GpL16-k0 (antibody, human IgG1, kappa)
heavy: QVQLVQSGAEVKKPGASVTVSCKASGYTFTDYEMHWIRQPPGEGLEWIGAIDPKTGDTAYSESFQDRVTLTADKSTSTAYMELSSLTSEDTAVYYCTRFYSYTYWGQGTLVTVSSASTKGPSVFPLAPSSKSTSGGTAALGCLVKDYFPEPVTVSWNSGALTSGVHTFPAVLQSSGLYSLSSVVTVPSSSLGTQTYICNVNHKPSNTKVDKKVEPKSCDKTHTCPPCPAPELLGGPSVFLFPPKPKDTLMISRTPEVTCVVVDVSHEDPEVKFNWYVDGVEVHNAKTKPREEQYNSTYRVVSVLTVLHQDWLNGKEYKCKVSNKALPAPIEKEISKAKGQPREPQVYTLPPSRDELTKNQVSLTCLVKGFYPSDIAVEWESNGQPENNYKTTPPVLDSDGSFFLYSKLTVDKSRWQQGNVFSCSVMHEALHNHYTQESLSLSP
light: DIVMTQSPLSLPVTPGEPASISCQASESLVHSNRNTYLHWYLQKPGQSPQLLIYKVSNRFSGVPDRFSGSGSGTDFTLKISRVEAEDVGVYYCSQNTHVPPTFGQGTKVEIERTVAAPSVFIFPPSDEQLKSGTASVVCLLNNFYPREAKVQWKVDNALQSGNSQESVTEQDSKDSTYSLSSTLTLSKADYEKHKVYACEVTHQGLSSPVTKSFNRGEC
notes: mutation in both H chains; also called Ho Ab T335_10E; T335E
B10: GpH7-B3 variant S337_06M/GpL16-k0 (antibody, human IgG1, kappa)
heavy: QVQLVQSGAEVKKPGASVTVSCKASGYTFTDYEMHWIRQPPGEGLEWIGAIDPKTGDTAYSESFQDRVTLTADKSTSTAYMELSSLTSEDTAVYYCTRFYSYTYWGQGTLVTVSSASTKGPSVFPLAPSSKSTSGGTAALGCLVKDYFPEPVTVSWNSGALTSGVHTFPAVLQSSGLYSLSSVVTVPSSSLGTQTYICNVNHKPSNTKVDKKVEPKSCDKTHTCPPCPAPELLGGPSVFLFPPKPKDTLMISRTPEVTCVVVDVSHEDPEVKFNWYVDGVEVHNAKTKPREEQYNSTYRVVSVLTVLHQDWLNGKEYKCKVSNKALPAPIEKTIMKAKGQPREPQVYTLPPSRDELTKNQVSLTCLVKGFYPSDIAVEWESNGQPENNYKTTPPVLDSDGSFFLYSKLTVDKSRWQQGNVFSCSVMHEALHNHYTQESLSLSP
light: DIVMTQSPLSLPVTPGEPASISCQASESLVHSNRNTYLHWYLQKPGQSPQLLIYKVSNRFSGVPDRFSGSGSGTDFTLKISRVEAEDVGVYYCSQNTHVPPTFGQGTKVEIERTVAAPSVFIFPPSDEQLKSGTASVVCLLNNFYPREAKVQWKVDNALQSGNSQESVTEQDSKDSTYSLSSTLTLSKADYEKHKVYACEVTHQGLSSPVTKSFNRGEC
notes: mutation in both H chains; also called Ho Ab S337_06M; S337M
B11: GpH7-B3 variant S337_08L/GpL16-k0 (antibody, human IgG1, kappa)
heavy: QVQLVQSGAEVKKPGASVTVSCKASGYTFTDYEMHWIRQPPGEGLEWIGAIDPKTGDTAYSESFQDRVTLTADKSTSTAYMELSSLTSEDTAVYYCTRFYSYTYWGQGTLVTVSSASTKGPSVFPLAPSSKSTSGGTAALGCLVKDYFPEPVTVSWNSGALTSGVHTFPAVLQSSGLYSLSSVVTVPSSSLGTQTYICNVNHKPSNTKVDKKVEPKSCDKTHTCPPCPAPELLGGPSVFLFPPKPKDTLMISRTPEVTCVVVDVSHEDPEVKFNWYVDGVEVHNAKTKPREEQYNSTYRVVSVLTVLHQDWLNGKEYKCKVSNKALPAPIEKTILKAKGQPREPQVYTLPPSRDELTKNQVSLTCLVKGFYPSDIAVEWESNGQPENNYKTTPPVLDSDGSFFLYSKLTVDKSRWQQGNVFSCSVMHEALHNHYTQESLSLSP
light: DIVMTQSPLSLPVTPGEPASISCQASESLVHSNRNTYLHWYLQKPGQSPQLLIYKVSNRFSGVPDRFSGSGSGTDFTLKISRVEAEDVGVYYCSQNTHVPPTFGQGTKVEIERTVAAPSVFIFPPSDEQLKSGTASVVCLLNNFYPREAKVQWKVDNALQSGNSQESVTEQDSKDSTYSLSSTLTLSKADYEKHKVYACEVTHQGLSSPVTKSFNRGEC
notes: mutation in both H chains; also called Ho Ab S337_08L; S337L

In patent publication US20180155451A1 (published 2018) one finds Ho/Con_1a data, which are given here for eleven molecules.

The target of this assay is T1, FcγRIa extracellular domain with C-terminal His tag (human, UniProt P12314 16-292).
T1 construct: extracellular domain; also called FcgRI; CD64; not shown: His tag at the C terminus
T1 sequence (P12314 16-292): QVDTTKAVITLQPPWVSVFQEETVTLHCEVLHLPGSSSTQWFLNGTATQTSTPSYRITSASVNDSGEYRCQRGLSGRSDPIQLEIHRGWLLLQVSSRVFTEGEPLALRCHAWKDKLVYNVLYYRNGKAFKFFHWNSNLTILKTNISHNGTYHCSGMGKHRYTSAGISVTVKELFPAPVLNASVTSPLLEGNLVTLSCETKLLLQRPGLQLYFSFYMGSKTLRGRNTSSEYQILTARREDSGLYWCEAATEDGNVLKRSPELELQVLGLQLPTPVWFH
The assay can be described thus: SPR Biacore, relative FcγRIa binding vs GpH7-B3/GpL16-k0. For orientation: SPR reads the build-up and loss of mass on a sensor chip optically.
For the molecule B1, the Ho/Con_1a is 105 % of HoCon Ab (=100).
The result for B2 reads 105 % of HoCon Ab (=100); that for B3, 106 % of HoCon Ab (=100).
The result for B4 reads 106 % of HoCon Ab (=100); that for B5, 104 % of HoCon Ab (=100); that for B6, 106 % of HoCon Ab (=100).
With B7, the Ho/Con_1a was 105 % of HoCon Ab (=100).
The figure for B8 is 105 % of HoCon Ab (=100); for B9 it is 108 % of HoCon Ab (=100).
Regarding B10, the Ho/Con_1a is 102 % of HoCon Ab (=100).
The result for B11 reads 105 % of HoCon Ab (=100).
